Earlier results on 1 molecule are cited in US20190076452A1, “THERAPEUTIC COMBINATIONS FOR TREATING NEOPLASIA” (MEDIMMUNE LIMITED, priority 2014, published 2019).

In this series the test system is advanced melanoma. The following applies: compared to the standard of care (temozolomide or dacarbazine); cited from earlier work.

B1: tremelimumab: human IgG2 monoclonal antibody highly selective for CTLA-4 (antibody)
VH: GVVQPGRSLRLSCAASGFTFSSYGMHWVRQAPGKGLEWVAVIWYDGSNKYYADSVKGRFTISRDNSKNTLYLQMNSLRAEDTAVYYCARDPRGATLYYYYYGMDVWGQGTTVTVSSASTKGPSVFPLAPCSRSTSESTAALGCLVKDYFPEPVTVSWNSGALTSGVH
VL: PSSLSASVGDRVTITCRASQSINSYLDWYQQKPGKAPKLLIYAASSLQSGVPSRFSGSGSGTDFTLTISSLQPEDFATYYCQQYYSTPFTFGPGTKVEIKRTVAAPSVFIFPPSDEQLKSGTASVVCLLNNFYPREAKV
Consider B1, for which the “overall survival of patients” value is “did not significantly increase”.
